Assay [1] has as its target SH3-588 (UniProt P06241).
The target of assay [2] is SH3-003 (UniProt P06241).
For assay [3], the target named is catechol O-methyltransferase (COMT), wild type (UniProt P22734).
Assay [4] has as its target naïve fusion of WT Fyn-SH3 and WT COMT (UniProt P06241).
Assay [5] deals with naïve fusion 2 (UniProt P06241).
The target in assay [6] is SH3-588 (UniProt P06241). Nature of the assay: fluorescence polarisation.

catechol O-methyltransferase (COMT), wild type, sequence (P22734 44-264): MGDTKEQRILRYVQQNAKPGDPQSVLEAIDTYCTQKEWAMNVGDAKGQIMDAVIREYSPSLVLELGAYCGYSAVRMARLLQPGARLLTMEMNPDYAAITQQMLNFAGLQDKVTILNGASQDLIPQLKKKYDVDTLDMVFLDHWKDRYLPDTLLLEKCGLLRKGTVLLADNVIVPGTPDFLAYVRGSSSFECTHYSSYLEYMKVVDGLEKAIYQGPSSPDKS

B1: peptide 3 (peptide)
peptide: YDLFNKGSGGAPPLPPRNRPRRS
HELM: PEPTIDE1{[N[C@@H](Cc1ccc(O)c(O)c1)C(=O)[*:2]].D.L.F.N.K.G.S.G.G.A.P.P.L.P.P.R.N.R.P.R.R.S.[am]}$$$$V2.0; N-terminus assumed
SMILES: CC(C)C[C@H](NC(=O)[C@H](CC(=O)O)NC(=O)[C@@H](N)Cc1ccc(O)c(O)c1)C(=O)N[C@@H](Cc1ccccc1)C(=O)N[C@@H](CC(N)=O)C(=O)N[C@@H](CCCCN)C(=O)NCC(=O)N[C@@H](CO)C(=O)NCC(=O)NCC(=O)N[C@@H](C)C(=O)N1CCC[C@H]1C(=O)N1CCC[C@H]1C(=O)N[C@@H](CC(C)C)C(=O)N1CCC[C@H]1C(=O)N1CCC[C@H]1C(=O)N[C@@H](CCCNC(=N)N)C(=O)N[C@@H](CC(N)=O)C(=O)N[C@@H](CCCNC(=N)N)C(=O)N1CCC[C@H]1C(=O)N[C@@H](CCCNC(=N)N)C(=O)N[C@@H](CCCNC(=N)N)C(=O)N[C@@H](CO)C(N)=O
As to B1, the KM of methylation (steady-state kinetics, MTase-Glo) in assay [1] was 6 µM.

B2: peptide 1 (peptide)
peptide: MKEARSAEAKEAGRGSGGSKNFLDY
HELM: PEPTIDE1{M.K.E.A.R.S.A.E.A.K.E.A.G.R.G.S.G.G.S.K.N.F.L.D.[O=C([C@H](Cc1ccc(O)c(O)c1)N[*:1])[*:2]].[am]}$$$$V2.0; N-terminus assumed
SMILES: CSCC[C@H](N)C(=O)N[C@@H](CCCCN)C(=O)N[C@@H](CCC(=O)O)C(=O)N[C@@H](C)C(=O)N[C@@H](CCCNC(=N)N)C(=O)N[C@@H](CO)C(=O)N[C@@H](C)C(=O)N[C@@H](CCC(=O)O)C(=O)N[C@@H](C)C(=O)N[C@@H](CCCCN)C(=O)N[C@@H](CCC(=O)O)C(=O)N[C@@H](C)C(=O)NCC(=O)N[C@@H](CCCNC(=N)N)C(=O)NCC(=O)N[C@@H](CO)C(=O)NCC(=O)NCC(=O)N[C@@H](CO)C(=O)N[C@@H](CCCCN)C(=O)N[C@@H](CC(N)=O)C(=O)N[C@@H](Cc1ccccc1)C(=O)N[C@@H](CC(C)C)C(=O)N[C@@H](CC(=O)O)C(=O)N[C@@H](Cc1ccc(O)c(O)c1)C(N)=O
Consider B2, for which the KM of methylation (steady-state kinetics, MTase-Glo) was 30 µM in assay [2], 19 µM in assay [1], 42 µM in assay [3] and 40 µM in assay [4].

B3: peptide 7 (peptide)
peptide: EWAPPLPPRNRPRRSYSK
HELM: PEPTIDE1{E.W.A.P.P.L.P.P.R.N.R.P.R.R.S.[O=C([C@H](Cc1ccc(O)c(O)c1)N[*:1])[*:2]].S.K.[am]}$$$$V2.0; N-terminus assumed
SMILES: CC(C)C[C@H](NC(=O)[C@@H]1CCCN1C(=O)[C@@H]1CCCN1C(=O)[C@H](C)NC(=O)[C@H](Cc1c[nH]c2ccccc12)NC(=O)[C@@H](N)CCC(=O)O)C(=O)N1CCC[C@H]1C(=O)N1CCC[C@H]1C(=O)N[C@@H](CCCNC(=N)N)C(=O)N[C@@H](CC(N)=O)C(=O)N[C@@H](CCCNC(=N)N)C(=O)N1CCC[C@H]1C(=O)N[C@@H](CCCNC(=N)N)C(=O)N[C@@H](CCCNC(=N)N)C(=O)N[C@@H](CO)C(=O)N[C@@H](Cc1ccc(O)c(O)c1)C(=O)N[C@@H](CO)C(=O)N[C@@H](CCCCN)C(N)=O
On to B3, for which the KM of methylation (steady-state kinetics, MTase-Glo) in assay [1] was 130 µM; in assay [4] it was 400 µM; in assay [5] it was 0.6 µM.

B4: peptide 2 (peptide)
peptide: EWAPPLPPRNRPRRSGGSKETYSK
HELM: PEPTIDE1{E.W.A.P.P.L.P.P.R.N.R.P.R.R.S.G.G.S.K.E.T.[O=C([C@H](Cc1ccc(O)c(O)c1)N[*:1])[*:2]].S.K.[am]}$$$$V2.0; N-terminus assumed
SMILES: CC(C)C[C@H](NC(=O)[C@@H]1CCCN1C(=O)[C@@H]1CCCN1C(=O)[C@H](C)NC(=O)[C@H](Cc1c[nH]c2ccccc12)NC(=O)[C@@H](N)CCC(=O)O)C(=O)N1CCC[C@H]1C(=O)N1CCC[C@H]1C(=O)N[C@@H](CCCNC(=N)N)C(=O)N[C@@H](CC(N)=O)C(=O)N[C@@H](CCCNC(=N)N)C(=O)N1CCC[C@H]1C(=O)N[C@@H](CCCNC(=N)N)C(=O)N[C@@H](CCCNC(=N)N)C(=O)N[C@@H](CO)C(=O)NCC(=O)NCC(=O)N[C@@H](CO)C(=O)N[C@@H](CCCCN)C(=O)N[C@@H](CCC(=O)O)C(=O)N[C@H](C(=O)N[C@@H](Cc1ccc(O)c(O)c1)C(=O)N[C@@H](CO)C(=O)N[C@@H](CCCCN)C(N)=O)[C@@H](C)O
Turning to B4, the KM of methylation (steady-state kinetics, MTase-Glo) in assay [3] stood at 132 µM.

B5: peptide 5 (peptide)
peptide: APPAPPRNRPRRSGKNFLDY
HELM: PEPTIDE1{A.P.P.A.P.P.R.N.R.P.R.R.S.G.K.N.F.L.D.[O=C([C@H](Cc1ccc(O)c(O)c1)N[*:1])[*:2]].[am]}$$$$V2.0; N-terminus assumed
SMILES: CC(C)C[C@H](NC(=O)[C@H](Cc1ccccc1)NC(=O)[C@H](CC(N)=O)NC(=O)[C@H](CCCCN)NC(=O)CNC(=O)[C@H](CO)NC(=O)[C@H](CCCNC(=N)N)NC(=O)[C@H](CCCNC(=N)N)NC(=O)[C@@H]1CCCN1C(=O)[C@H](CCCNC(=N)N)NC(=O)[C@H](CC(N)=O)NC(=O)[C@H](CCCNC(=N)N)NC(=O)[C@@H]1CCCN1C(=O)[C@@H]1CCCN1C(=O)[C@H](C)NC(=O)[C@@H]1CCCN1C(=O)[C@@H]1CCCN1C(=O)[C@H](C)N)C(=O)N[C@@H](CC(=O)O)C(=O)N[C@@H](Cc1ccc(O)c(O)c1)C(N)=O
As usually defined, the Kd is a measure of binding affinity in units of concentration. The low end stands for higher affinity, the high end for lower affinity. On to B5, for which the KM of methylation (steady-state kinetics, MTase-Glo) in assay [1] worked out at 1.5 µM. In assay [6], this molecule yielded a Kd of 22 µM.

B6: peptide 4 (peptide)
peptide: APPLPPRNRPRRSGKNFLDY
HELM: PEPTIDE1{A.P.P.L.P.P.R.N.R.P.R.R.S.G.K.N.F.L.D.[O=C([C@H](Cc1ccc(O)c(O)c1)N[*:1])[*:2]].[am]}$$$$V2.0; N-terminus assumed
SMILES: CC(C)C[C@H](NC(=O)[C@H](Cc1ccccc1)NC(=O)[C@H](CC(N)=O)NC(=O)[C@H](CCCCN)NC(=O)CNC(=O)[C@H](CO)NC(=O)[C@H](CCCNC(=N)N)NC(=O)[C@H](CCCNC(=N)N)NC(=O)[C@@H]1CCCN1C(=O)[C@H](CCCNC(=N)N)NC(=O)[C@H](CC(N)=O)NC(=O)[C@H](CCCNC(=N)N)NC(=O)[C@@H]1CCCN1C(=O)[C@@H]1CCCN1C(=O)[C@H](CC(C)C)NC(=O)[C@@H]1CCCN1C(=O)[C@@H]1CCCN1C(=O)[C@H](C)N)C(=O)N[C@@H](CC(=O)O)C(=O)N[C@@H](Cc1ccc(O)c(O)c1)C(N)=O
In turn, B6 gave a Kd in assay [6] of 0.69 µM. This lies in the sub-micromolar range.

These data come from PMC10065947.
